Results on one molecule are retold here after PMC8811837 (Advanced Science, 2021).

The test deals with T1, σ70 (E. coli, UniProt P00579).
T1 construct: also called σR4 (region 4); σ70 R4
Description: cryo-EM structure. As to conditions: both partners purified.

T1 sequence (P00579 whole entry): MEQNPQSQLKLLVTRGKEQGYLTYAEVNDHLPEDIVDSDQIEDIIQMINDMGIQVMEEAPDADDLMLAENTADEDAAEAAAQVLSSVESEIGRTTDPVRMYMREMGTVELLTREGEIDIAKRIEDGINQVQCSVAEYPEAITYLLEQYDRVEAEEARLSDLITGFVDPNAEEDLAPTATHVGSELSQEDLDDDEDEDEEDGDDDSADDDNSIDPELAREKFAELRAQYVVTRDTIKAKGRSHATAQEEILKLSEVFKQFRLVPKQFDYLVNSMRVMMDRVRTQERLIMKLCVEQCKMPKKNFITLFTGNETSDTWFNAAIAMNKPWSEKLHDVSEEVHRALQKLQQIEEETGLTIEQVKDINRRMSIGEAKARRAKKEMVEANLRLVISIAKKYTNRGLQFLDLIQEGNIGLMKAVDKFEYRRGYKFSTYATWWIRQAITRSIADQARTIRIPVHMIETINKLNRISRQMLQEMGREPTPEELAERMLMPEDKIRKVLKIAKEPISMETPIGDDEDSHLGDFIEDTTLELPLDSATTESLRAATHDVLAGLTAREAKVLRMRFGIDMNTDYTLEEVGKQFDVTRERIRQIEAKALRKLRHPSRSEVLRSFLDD

B1: RamA (natural protein)
chain: MTISAQVIDTIVEWIDDNLHQPLRIDDIARHAGYSKWHLQRLFLQYKGESLGRYIRERKLLLAARDLRDTDQRVYDICLKYGFDSQQTFTRVFTRTFNQPPGAYRKENHSRAH
Turning to B1, the binding result was “binds”.
